Test results from IntAct's records for PubMed 10206957.

B1: Signal peptidase complex catalytic subunit SEC11 (Saccharomyces cerevisiae), P15367 (parent)
chain: MNLRFELQKLLNVCFLFASAYMFWQGLAIATNSASPIVVVLSGSMEPAFQRGDILFLWNRNTFNQVGDVVVYEVEGKQIPIVHRVLRQHNNHADKQFLLTKGDNNAGNDISLYANKKIYLNKSKEIVGTVKGYFPQLGYITIWISENKYAKFALLGMLGLSALLGGE
partner: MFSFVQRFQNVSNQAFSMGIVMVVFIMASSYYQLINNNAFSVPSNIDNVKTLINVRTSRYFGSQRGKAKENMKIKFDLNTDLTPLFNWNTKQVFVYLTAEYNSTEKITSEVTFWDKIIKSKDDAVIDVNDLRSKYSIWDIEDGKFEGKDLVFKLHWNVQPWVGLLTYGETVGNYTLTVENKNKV

Variants of: B1
Conditions: with spc3_yeast SPC3, Q12133

Variant	effect of a mutation on the interaction
D103N	decreasing interaction
